B1: CH493 (antibody, V domains shown)
VH: QVRLLQYGGGVKRPGASMTISCVASGYNFNDYYIHWVRQAPGQGLELMGWIDPSGGRTDYAGAFGDRVSMYRDKSMNTLYMDLRSLRSGDTAMYYCVRNVGTAGSLLHYDHWGLGVMVTVSS
VL: EIVLTQSPATLSVSPGERVTLSCRASQSVRNNLAWYRQKRGQAPRLLIYGASTRATGIPARFSGSGSGTEFTLTISSMQSEDFAVYYCQQYNNWWTFGQGTKVEIK
notes: also called CH235.9; DH493
B2: CH235 (antibody, V domains shown)
VH: QVQLVQSGAEVKKPGASVTVSCQASGYTFTNYYVHWVRQAPGQGLQLMGWIDPSWGRTNYAQNFQGRITMTRDTSTSTVYMEMRSLRSEDTAVYYCARNVATEGSLLHYDYWGQGTLVTVSA
VL: EIVLTQSPATLSVSPGERATLSCRASQSVRSNLAWYQQRPGQAPRLLIYGTSTRATGVPARFSGRGSGTEFTLAISSMQSEDFAVYLCLQYNNWWTFGQGTKVEIK
notes: also called CH235_4A
B3: CH241 (antibody, V domains shown)
VH: QVQLVQSGAAVKKPGASVRVSCKASGYTFTSSHIHWVRQAPGQGPEWMGMIDPSVGRPTTAGKFQGRVTMTRDRYTSTAYMDLSSLRSEDTAVYYCARSVETTGSLLYFDYWGQGTLITVSS
VL: EIVLTQSPATLSVSPGERATLSCRASQSVRSNIAWYQQKPGQAPRLLIHGASTRATGIPGRFSGSGSGPEFTLAISSVQSEDFAVYYCQQYNDWWTFGQGTKVEIK
B4: CH557 (antibody, V domains shown)
VH: QVRLAQYGGGVKRLGATMTLSCVASGYTFNDYYIHWVRQAPGQGFELLGYIDPANGRPDYAGALRERLSFYRDKSMETLYMDLRSLRYDDTAMYYCVRNVGTAGSLLHYDHWGSGSPVIVSS
VL: EIVLTQSPATLSASPGERVTLTCRASRSVRNNVAWYQHKGGQSPRLLIYDASTRAAGVPARFSGSASGTEFTLAISNLESEDFTVYFCLQYNNWWTFGQGTRVDIK
notes: also called CH235.12; CH557_4A/293i

Legend:
CH505w030.20D8gp120/293F = molecular target: T1, CH505w030.20D8gp120/293F; assay: ELISA
T1 construct: also called CH505w30.20 gp120

CH505.w30.12D8gp120 = molecular target: T2, CH505.w30.12D8gp120; assay: ELISA
T2 construct: also called CH505w30.12 gp120

CH0505_CON D7gp120/293i = assay: ELISA
CH505w020.14D8gp120 = molecular target: T3, CH505w020.14D8gp120; assay: ELISA
T3 construct: also called CH505w20.14 gp120

CH505w136.B18D8gp120 = assay: ELISA
CH505.M21D8gp120/293F = assay: ELISA
[1] = molecular target: T4, CH505.TF mutant gp120 M20 (HIV-1); assay: ELISA
T4 construct: domain: gp120

CH505.M7D8gp120/293F = assay: ELISA
CH505.M10D8gp120 = assay: ELISA
CH505.M19D8gp120 = assay: ELISA
CH505.M11D8gp120/293F = assay: ELISA
CH505.M9D8gp120/293F = assay: ELISA
CH505.TF mutant gp120 M6 = molecular target: T5, CH505.TF mutant gp120 M6 (HIV-1); assay: ELISA
T5 construct: domain: gp120

CH505.M5D8gp120293F = assay: ELISA
CH505.TF mutant gp120 M8 = molecular target: T6, CH505.TF mutant gp120 M8 (HIV-1); assay: ELISA
T6 construct: domain: gp120

Scl-70 [2] = molecular target: T7, Scl-70 (UniProt P11387 1-765); assay: ELISA, LogAUC grade
T7 sequence: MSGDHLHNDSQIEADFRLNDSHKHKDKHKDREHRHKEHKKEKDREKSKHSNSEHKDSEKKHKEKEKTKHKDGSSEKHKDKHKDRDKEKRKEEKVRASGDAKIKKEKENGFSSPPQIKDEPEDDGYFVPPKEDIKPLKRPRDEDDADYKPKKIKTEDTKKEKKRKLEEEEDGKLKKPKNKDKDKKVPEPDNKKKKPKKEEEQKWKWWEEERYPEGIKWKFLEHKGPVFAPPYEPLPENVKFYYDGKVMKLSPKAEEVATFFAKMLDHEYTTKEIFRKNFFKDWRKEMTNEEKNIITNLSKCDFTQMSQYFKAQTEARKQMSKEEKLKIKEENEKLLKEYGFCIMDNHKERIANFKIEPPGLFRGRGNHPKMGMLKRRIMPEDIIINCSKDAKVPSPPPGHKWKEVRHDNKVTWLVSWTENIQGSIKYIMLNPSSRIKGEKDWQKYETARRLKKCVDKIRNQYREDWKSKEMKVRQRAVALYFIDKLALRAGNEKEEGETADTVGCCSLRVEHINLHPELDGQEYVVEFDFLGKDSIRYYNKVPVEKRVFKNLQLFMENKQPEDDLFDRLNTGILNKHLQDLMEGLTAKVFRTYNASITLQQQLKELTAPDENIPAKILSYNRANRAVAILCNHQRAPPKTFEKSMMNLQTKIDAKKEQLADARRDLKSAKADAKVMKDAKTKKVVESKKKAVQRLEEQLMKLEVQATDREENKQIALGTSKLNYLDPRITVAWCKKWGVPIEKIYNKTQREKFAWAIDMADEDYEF

SSB = molecular target: T8, SSB (UniProt P05455 1-408); assay: ELISA, LogAUC grade
T8 sequence: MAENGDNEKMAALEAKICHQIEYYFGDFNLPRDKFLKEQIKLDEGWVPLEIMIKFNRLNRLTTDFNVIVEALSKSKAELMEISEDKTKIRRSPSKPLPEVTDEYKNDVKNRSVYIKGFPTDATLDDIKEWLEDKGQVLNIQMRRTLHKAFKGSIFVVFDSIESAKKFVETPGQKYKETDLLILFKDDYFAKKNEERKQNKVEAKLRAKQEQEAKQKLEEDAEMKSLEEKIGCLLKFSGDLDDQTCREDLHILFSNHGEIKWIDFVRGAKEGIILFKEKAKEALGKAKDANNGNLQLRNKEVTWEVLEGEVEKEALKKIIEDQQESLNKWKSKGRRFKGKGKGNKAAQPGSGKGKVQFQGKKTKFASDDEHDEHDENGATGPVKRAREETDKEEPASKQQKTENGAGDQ

Jo-1 [3] = molecular target: T9, Jo-1 (UniProt P12081 1-509); assay: ELISA, LogAUC grade
T9 sequence: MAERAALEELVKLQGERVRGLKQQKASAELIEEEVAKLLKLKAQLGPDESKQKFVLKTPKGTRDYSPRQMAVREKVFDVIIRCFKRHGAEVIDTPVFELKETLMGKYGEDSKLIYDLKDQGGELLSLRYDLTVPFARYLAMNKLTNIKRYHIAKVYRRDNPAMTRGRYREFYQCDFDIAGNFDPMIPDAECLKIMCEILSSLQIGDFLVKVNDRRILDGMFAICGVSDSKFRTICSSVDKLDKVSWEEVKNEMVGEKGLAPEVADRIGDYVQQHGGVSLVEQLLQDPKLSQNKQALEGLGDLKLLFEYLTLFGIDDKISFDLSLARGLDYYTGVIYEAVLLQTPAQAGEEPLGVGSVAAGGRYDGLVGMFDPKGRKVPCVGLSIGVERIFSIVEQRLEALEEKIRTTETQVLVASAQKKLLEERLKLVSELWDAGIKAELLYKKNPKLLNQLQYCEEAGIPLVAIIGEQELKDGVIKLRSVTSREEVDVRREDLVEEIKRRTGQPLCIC

Scl-70 [4] = molecular target: T7, Scl-70; assay: AtheNA, Ab 25 ug/ml
Histones = molecular target: T10, Histones; assay: AtheNA, Ab 25 ug/ml
T10 construct: Mixture of proteins

RNP (ribonucleoprotein) = molecular target: T11, RNP (ribonucleoprotein); assay: AtheNA, Ab 25 ug/ml
T11 construct: Protein-RNA complex

Jo-1 [5] = molecular target: T9, Jo-1; assay: AtheNA, Ab 25 ug/ml

| Binder | LogAUC (CH505w030.20D8gp120/293F) | LogAUC (CH505.w30.12D8gp120) | LogAUC (CH0505_CON D7gp120/293i) | LogAUC (CH505w020.14D8gp120) | LogAUC (CH505w136.B18D8gp120) | LogAUC (CH505.M21D8gp120/293F) | LogAUC [1] | LogAUC (CH505.M7D8gp120/293F) | LogAUC (CH505.M10D8gp120) | LogAUC (CH505.M19D8gp120) | LogAUC (CH505.M11D8gp120/293F) | LogAUC (CH505.M9D8gp120/293F) | LogAUC (CH505.TF mutant gp120 M6) | LogAUC (CH505.M5D8gp120293F) | LogAUC (CH505.TF mutant gp120 M8) | binding result (Scl-70 [2]) | binding result (SSB) | binding result (Jo-1 [3]) | AtheNA signal (Scl-70 [4]) | AtheNA signal (Histones) | also measured |
| --- | --- | --- | --- | --- | --- | --- | --- | --- | --- | --- | --- | --- | --- | --- | --- | --- | --- | --- | --- | --- | --- |
| B1 | 8.09 | 3.17 | 8.67 | 8.15 | 5.76 | 1.13 | 1.04 | 0.8 | 10.2 | 5.95 | 8.26 | 1.31 | 8.11 | 9.26 | 4.36 | – | – | – | – | – | – |
| B2 | 8.33 | 7.28 | 9.73 | 9.91 | 7.53 | 0 | 0 | 0 | 10.6 | 7.13 | 7.59 | 0 | 9.46 | 11.4 | 0 | no binding | no binding | no binding | 4 relative luminescence units | 7 relative luminescence units | AtheNA signal (RNP (ribonucleoprotein)): 5 relative luminescence units; AtheNA signal (Jo-1 [5]): 4 relative luminescence units |
| B3 | 8.03 | 9.6 | 13.3 | 13.1 | 0.89 | 4.82 | 2.15 | 0 | 14.4 | 10.4 | 9.68 | 0 | 13.2 | 14.5 | 2.18 | no binding | no binding | no binding | 4 relative luminescence units | 20 relative luminescence units | AtheNA signal (RNP (ribonucleoprotein)): 6 relative luminescence units; AtheNA signal (Jo-1 [5]): 5 relative luminescence units |
| B4 | 8.59 | 2.37 | 8.39 | 8.33 | 8.31 | 0.19 | 0 | 0.69 | 7.63 | 4.61 | 7.71 | 0.38 | 8.21 | 8.2 | 1.14 | no binding | no binding | no binding | – | – | – |

From patent US10450368 (DUKE UNIVERSITY, dated 2019)
